Assay [1] deals with T1, GST-impβ (UniProt Q14974 1-876).
T1 construct: also called Imps
Briefly: GST pull-down of in vitro translated 35S-labelled protein (0.25% NP40), autoradiography.

Assay [2] deals with GST-Impα (Rch1) (human, UniProt P52292 1-529). The description is as above.

T1 sequence (Q14974 whole entry): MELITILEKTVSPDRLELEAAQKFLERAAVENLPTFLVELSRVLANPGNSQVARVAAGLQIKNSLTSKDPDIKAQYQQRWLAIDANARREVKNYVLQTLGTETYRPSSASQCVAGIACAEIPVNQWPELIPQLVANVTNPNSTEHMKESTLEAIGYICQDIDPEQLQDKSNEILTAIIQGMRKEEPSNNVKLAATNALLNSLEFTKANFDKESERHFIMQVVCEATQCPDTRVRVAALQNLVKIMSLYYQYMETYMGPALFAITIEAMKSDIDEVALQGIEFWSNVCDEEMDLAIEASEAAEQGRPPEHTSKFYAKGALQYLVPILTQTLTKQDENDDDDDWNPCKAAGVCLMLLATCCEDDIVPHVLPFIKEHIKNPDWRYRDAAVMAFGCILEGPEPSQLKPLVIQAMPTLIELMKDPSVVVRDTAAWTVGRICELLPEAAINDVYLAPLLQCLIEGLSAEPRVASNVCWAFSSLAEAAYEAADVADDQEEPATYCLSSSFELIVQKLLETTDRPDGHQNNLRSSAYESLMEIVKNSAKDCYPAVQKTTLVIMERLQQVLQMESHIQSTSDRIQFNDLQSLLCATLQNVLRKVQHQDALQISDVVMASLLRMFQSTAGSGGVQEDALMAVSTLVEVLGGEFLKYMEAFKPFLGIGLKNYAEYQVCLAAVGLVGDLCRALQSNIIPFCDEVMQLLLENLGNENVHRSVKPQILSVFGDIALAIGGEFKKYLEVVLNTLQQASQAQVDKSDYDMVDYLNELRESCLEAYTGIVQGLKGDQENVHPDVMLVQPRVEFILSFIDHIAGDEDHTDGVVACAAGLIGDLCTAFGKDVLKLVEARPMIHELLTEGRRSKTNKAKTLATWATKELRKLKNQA

B1: T7-CAT (enzyme)
chain: MEKKITGYTTVDISQWHRKEHFEAFQSVAQCTYNQTVQLDITAFLKTVKKNKHKFYPAFIHILARLMNAHPEFRMAMKDGELVIWDSVHPCYTVFHEQTETFSSLWSEYHDDFRQFLHIYSQDVACYGENLAYFPKGFIENMFFVSANPWVSFTSFDLNVANMDNFFAPVFTMGKYYTQGDKVLMPLAIQVHHAVCDGFHVGRMLNELQQYCDEWQGGA
In the case of B1, the binding result in assay [1] and in assay [2] was “no binding” throughout.

These data come from patent US20070203325A1 (published 2007).
